Experiment: yeast display, Sf9 membrane polyspecificity reagent, FACS + sequencing; frameworks hold sequencing errors
Procedure, shortened: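 Synthetic nanobody libraries on Saccharomyces cerevisiae BJ5465 were galactose-induced for 36–48 hours, stained 1 hour at 4 °C with 10% biotinylated, detergent-solubilized Sf9 membrane reagent and enriched on streptavidin microbeads. FACS then separated cells into low and high (top ~1%) gates by anti-HA (expression) and streptavidin (reagent binding) fluorescence. Genes were colony-PCR amplified, MiSeq 2 × 250 sequenced and CDR-length filtered. A clone's polyreactivity label is that of its gate of origin.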

For “QVQLVESGGGLVQAGGSLRLSCAASGSTFRPNAMGWYRQAPGKERELVAAISRSGVSTYYADSVKGRFTISRDNAKNTVYLQMNSLQPEDTAVYYCARRYTGRPVLRESWGQGTQVTVSS”, which “polyreactivity (PSR sort gate)” value is on record?
The value was “low polyreactivity”.

With “QVQLVESGGGLVQAGGSLRLSCAASGSTFRQYAMGWYRQAPGKERELVAAIRGRDGSTYYADSVKGGFTISRDNAKYTVYLQMNSLKPEDSAVYYCNVVARGVSPGYDYWGQGTQVTVSS” as the sequence, how does the “polyreactivity (PSR sort gate)” value read?
Its value is “high polyreactivity”.

For “QVQLVESGGGLVQAGGSLRLSCAASGSTFRRNAMGGYRQAPGKERELVAAITSTDSTYYADSVKGRFTISRDNAKNSVYLQMNSLKPEDTAVYYCAKGYWWGGEMGYWGQGTQVTVSS”, which “polyreactivity (PSR sort gate)” value is on record?
Its value is “low polyreactivity”.

Which “polyreactivity (PSR sort gate)” value does the source give for “QVQLVESGGGLVQAGGSLRLSCAASGSTFRRNAMGWYRQAPGKERELVAAITSTDSTYYADSVKGRFTISRDNAKNTVYLQMNSLKPEDTAVYYCAKGYCWGGQMGYWGQGTQVTVSS” here?
Its value is “low polyreactivity”.

For “QVQLVESGGGLVQAGGSLRLSCAASGSTFRRNAMGWYRQAPGKERELVAAITVSGGSTYYADSVKGRFTISRDNAKNTVYLQMNSLKPEDTAVYYCAAEPSQYSWYTTYYYWGQGTQVTVSS”, which “polyreactivity (PSR sort gate)” value is on record?
Its value is “high polyreactivity”.

Which “polyreactivity (PSR sort gate)” value does the source give for “QVQLVESGGGLVQAGGSLRLSCAASGSTFRRNAMGWYRQAPGKERELVATISTRGGSTYYADSVKGRLTLSRDNAKNTVYLQMNSLKPEDTAVYYCAADRRSGYSRSKYGRGDYWGQGTQVTVSS” here?
Its value is “high polyreactivity”.

Which “polyreactivity (PSR sort gate)” value does the source give for “QVQLVESGGGLVQAGGSLRLSCAASGSTFRRYAMGSYRQAPGKERELVAAISVSGGRTSYADSVKGRFTISRDNAKNTVYLQMNSLKPEDTAVYYCNADYYKRMDYWGQGTKVTVSS” here?
The value was “high polyreactivity”.

With “QVQLVESGGGLVQAGGSLRLSCAASGSTFRRYAMGWYRQAPGKEREISTSDGSTYYADSVKGRFTISRDNAKNTVYLQMNSLKPEDTAVYYCAADGYRQLIEDITDDYWGQGTQVTVSS” as the sequence, how does the “polyreactivity (PSR sort gate)” value read?
Its value is “low polyreactivity”.

Which “polyreactivity (PSR sort gate)” value does the source give for “QVQLVESGGGLVQAGGSLRLSCAASGSTFRRYAMGWYRQAPGKERELVAAITSTDVNTYYADSVKGRFTISRDNAKNTVYFQMNSLKPEDTAVYYCAAVYLGYYGVSDMEYWGQGTQVTVSS” here?
Its value is “high polyreactivity”.

With “QVQLVESGGGLVQAGGSLRLSCAASGSTFRRYPMGGYRQAPGTERELVAGISSGGTTYYADSVKGRFTISRDNAKNSVYLQMNSLKPEDTAVYYCAKVLYLRSAQAYYYWGQGTQVTVSS” as the sequence, how does the “polyreactivity (PSR sort gate)” value read?
The value was “high polyreactivity”.

With “QVQLVESGGGLVQAGGSLRLSCAASGSTFRSNAMGWYRQAPGKERELVAAISRRGGSTYYADSVKGRFTISRDNAKNTVDLQMNSLKPEDTAVYYCAKGYIGFPISSFLYDYWGQGTQVTVSS” as the sequence, how does the “polyreactivity (PSR sort gate)” value read?
The value was “high polyreactivity”.

For “QVQLVESGGGLVQAGGSLRLSCAASGSTFRSYTMGWYRQAPGKERELVADINGTGGSTYYADSVKGRFTISRDNAKNTVYLQMNSLKPEDTAVYYCAADGYFRTVTSGWALRMGYWGQGTQVTVSS”, which “polyreactivity (PSR sort gate)” value is on record?
Its value is “high polyreactivity”.

With “QVQLVESGGGLVQAGGSLRLSCAASGSTFRTYAMGWYRQAPGKEREFVAAIRYNGGSTYYADSVKGRFTISLDNAKNTVYLQMNSLKPEDTAVYYCAAATYYYRVSWLWYYLDDYWGQGTQVTVSS” as the sequence, how does the “polyreactivity (PSR sort gate)” value read?
Its value is “high polyreactivity”.

For “QVQLVESGGGLVQAGGSLRLSCAASGSTFRVNAMGWYRQAPGKEREFVATIRGGGVRTYYADSVKGRFTISRDNAKNTVYLQMNSLKPEDTAVYYCAVAGGTPGAYRRFNYWGQGTQVTVSS”, which “polyreactivity (PSR sort gate)” value is on record?
The value was “high polyreactivity”.

Which “polyreactivity (PSR sort gate)” value does the source give for “QVQLVESGGGLVQAGGSLRLSCAASGSTFRVNAMGWYRQAPGKEREFVATIRGGGVRTYYADSVKGRFTISRDNAKNTVYLQMNSLKPEDTAVYYCNRKFYWRRDYWGQGTQVTVSS” here?
The value was “high polyreactivity”.

With “QVQLVESGGGLVQAGGSLRLSCAASGSTFRVNVMGWYRQAPGKERELVAAITTSGGSTYYADSVKGRFTISRDNAKNTVYLQMNSLKPEDTAVYYCAAEGGFSPQPYNLYYATPREDYWGQGTQVTVSS” as the sequence, how does the “polyreactivity (PSR sort gate)” value read?
Its value is “low polyreactivity”.

With “QVQLVESGGGLVQAGGSLRLSCAASGSTFRVYAMGWYRPAPGKVRELVAAISGSGTSTYYADSVKGRFTISRDNAKNTVYLQMNSLKPEDTAVYYCATGKNYWRGYEYWGQGTQVTVSS” as the sequence, how does the “polyreactivity (PSR sort gate)” value read?
Its value is “high polyreactivity”.

Which “polyreactivity (PSR sort gate)” value does the source give for “QVQLVESGGGLVQAGGSLRLSCAASGSTFRVYAMGWYRQAPGKERELVAAITKSGGSTYYADSVKGRFTISRDNAKNTVYLQMNSLKPEDTEVYYCAADKSWTRYGFYWGQGTQLTVSS” here?
The value was “high polyreactivity”.

For “QVQLVESGGGLVQAGGSLRLSCAASGSTFRVYAMGWYRQAPGNERELVAAISLSGGRTYYADSVKGRFTISRDNAKNTVYLQMNSLKPEDTAVYYCARRYRDYGRYGYWGQGTQVTVSS”, which “polyreactivity (PSR sort gate)” value is on record?
Its value is “high polyreactivity”.

With “QVQLVESGGGLVQAGGSLRLSCAASGSTFRWNAMGWYRQAPGKERELVAAITRSGGSTYYADSVKGRFTISRDNAKNTVYLQMNSLKPEDTAVYYCAAGYYTARRIRSDYWGQGTQVTVSS” as the sequence, how does the “polyreactivity (PSR sort gate)” value read?
Its value is “high polyreactivity”.

With “QVQLVESGGGLVQAGGSLRLSCAASGSTFRWNTMGWYIQAPGKERELVAAISYSGGITYYADSVKGRFTISRDNAKNTVYLQMNSLKPEDTAVYYCYATRVRGWYVTRYYYWGQGSQVTVSS” as the sequence, how does the “polyreactivity (PSR sort gate)” value read?
Its value is “high polyreactivity”.

For “QVQLVESGGGLVQAGGSLRLSCAASGSTFRWYAMGWYRQAPGKERDLVAAISARGTSTYYADSVKGRFTISRDNAKNTVYLQMNSLKPEDTAVSYCAAPQQQSWTYDGRYGYWGQGTQVTVSS”, which “polyreactivity (PSR sort gate)” value is on record?
The value was “high polyreactivity”.

Which “polyreactivity (PSR sort gate)” value does the source give for “QVQLVESGGGLVQAGGSLRLSCAASGSTFRWYAMGWYRQAPGKERELVAAIRRIGSRTYADSVKGRFTISRDNAKNTVYLQMNSLKPEDTAVYYCATRYKYTGYDYWGQGTQVTVSS” here?
Its value is “high polyreactivity”.

For “QVQLVESGGGLVQAGGSLRLSCAASGSTFRWYAMGWYRQAPGKERELVAAIRYTGGSTYYADSVKGRFTISRDNAKNTVYLQMNSLKPEDTAVYYCNARTFRRYVSYSRTYVGYDYWGQGTQVTVSS”, which “polyreactivity (PSR sort gate)” value is on record?
Its value is “high polyreactivity”.

For “QVQLVESGGGLVQAGGSLRLSCAASGSTFRWYAMGWYRQAPGKERELVAAITAGGRTYYADSVKGRFTISRDNAKNTVYLQMTSLKPEDTAVYYCNALGKPTWYATTYDYWGQGTQVTVSS”, which “polyreactivity (PSR sort gate)” value is on record?
The value was “high polyreactivity”.

Which “polyreactivity (PSR sort gate)” value does the source give for “QVQLVESGGGLVQAGGSLRLSCAASGSTFRYIAMGWYRQAPGKERELVAAISRGGSTNYADSVKGRFTISRDNAKNSVYLQMNSLKPEDTAVYYCAASGTRRGTAVWRVKPGDYWGQGTQVTVSS” here?
The value was “high polyreactivity”.

With “QVQLVESGGGLVQAGGSLRLSCAASGSTFRYKTMGWYRQAPGKERELVAAISSRGTNTYYADSVKGRFTISRDNAKNTVYLQMNSLKPDDPAVYYCDTGYYVRMDWGQGTQVTVSS” as the sequence, how does the “polyreactivity (PSR sort gate)” value read?
Its value is “high polyreactivity”.

With “QVQLVESGGGLVQAGGSLRLSCAASGSTFRYNAMGWYRQAPGKERELVAVISWGGGRTYYADSVKGRFTISRDNAKNTVYLQMNSLKPEDTAVYYCNVYFGRIVARDYGYWGQGTQVTVSS” as the sequence, how does the “polyreactivity (PSR sort gate)” value read?
The value was “high polyreactivity”.

Which “polyreactivity (PSR sort gate)” value does the source give for “QVQLVESGGGLVQAGGSLRLSCAASGSTFRYNAMGWYRQAPGKEREVVAAISRIGGTTYADSVKGRFTISRDNAKNTVYFQMNSLKPEDTAVYYCARANWGYYGPEYGYWGQGTQVTVSS” here?
Its value is “high polyreactivity”.

Which “polyreactivity (PSR sort gate)” value does the source give for “QVQLVESGGGLVQAGGSLRLSCAASGSTFRYNAMGWYRQARGKERELVGGITSSGGTYAHSVKGRFTISRDNAKNTVYLQMNSLKPEDTAVYYCNALGVQDEFDYWGQGTQVTVSS” here?
Its value is “low polyreactivity”.

With “QVQLVESGGGLVQAGGSLRLSCAASGSTFRYNARGWYRQAPGKERELVADIRRSGGSTYYADSVKGRFTISRDNAKNTVYLQMNSLKPEDTAVYYCNAAVSRLYYHSYSYRSYYYWGQGTQVTVSS” as the sequence, how does the “polyreactivity (PSR sort gate)” value read?
The value was “high polyreactivity”.

Which “polyreactivity (PSR sort gate)” value does the source give for “QVQLVESGGGLVQAGGSLRLSCAASGSTFRYNDMGWYRQAPGKERELVADITSGGGTYYADSVKGRFTISRDNAKNTVYLQMNSLKPEDTAVYYCNADGFYDYPGWYGLVYWYDYWGQGTQVTVSS” here?
Its value is “high polyreactivity”.

With “QVQLVESGGGLVQAGGSLRLSCAASGSTFRYNLMGWYRQAPGKERELVAAISAVGSTYYADSVKGRFTISRDNAKNTVYLQMNSLKAEDTAVYYCAASYDWRAYRRDFYYWLTGDYWGQGTQVTVSS” as the sequence, how does the “polyreactivity (PSR sort gate)” value read?
The value was “low polyreactivity”.

Which “polyreactivity (PSR sort gate)” value does the source give for “QVQLVESGGGLVQAGGSLRLSCAASGSTFRYNVMGWYRQAPGKERELVATISYSGGSTNYADSVKGRFTISRDNAKNSVYLEIKSLKPVDTAVYYCAARYLYPFYGYWWYDYWGQGTQVTVSS” here?
The value was “high polyreactivity”.

With “QVQLVESGGGLVQAGGSLRLSCAASGSTFRYYAMGWYRPAPGKERELVAVISTSGNTYYADSVKGRFTISRDNAKNTVYLQMNSLKPEDTAVYYCAARGVGGQISQEYDYWGQGTQVTVSS” as the sequence, how does the “polyreactivity (PSR sort gate)” value read?
The value was “low polyreactivity”.

For “QVQLVESGGGLVQAGGSLRLSCAASGSTFRYYAMGWYRQAPGKEREFVAAITASGVTTYYADSVKGRFTISRDNAKNTVYLQMNSLKPEDTAVYYCAARLYYNYRGRYNYWGQGTQVTVSS”, which “polyreactivity (PSR sort gate)” value is on record?
The value was “high polyreactivity”.

With “QVQLVESGGGLVQAGGSLRLSCAASGSTFRYYAMGWYRQAPGKERELVAAISRSGGSTSYADSVKGRFTISRDNAKNTVYLQMNSLKPEDTAVYSCAARIYRKYYRYDYWGQGTQVTVSS” as the sequence, how does the “polyreactivity (PSR sort gate)” value read?
The value was “high polyreactivity”.

With “QVQLVESGGGLVQAGGSLRLSCAASGSTFRYYAMGWYRQAPGKERELVAAISTSGGRTYYADSVKGRFTISRDNAKNTVYLQMNSLKPEDTAVYYCNARESRGYSDQTWKYYYWGQGTQVTVSS” as the sequence, how does the “polyreactivity (PSR sort gate)” value read?
Its value is “high polyreactivity”.

Which “polyreactivity (PSR sort gate)” value does the source give for “QVQLVESGGGLVQAGGSLRLSCAASGSTFRYYAMGWYRQAPGKERELVAAISWSGGSTYYADSVKGRFTISRDNAKNTVYLQMNSLKPEDTEVYYCNKAWFPYYYYRFDYWGQGTQVTVSS” here?
Its value is “high polyreactivity”.

With “QVQLVESGGGLVQAGGSLRLSCAASGSTFRYYAMGWYRQAPGKERELVASITWSGGSTYYADSVKGRFTISRDNAKNTVYLQMNSLNPEDTAVYYCAARQYIGSPPHRRRFDYWGKGTQVTVSS” as the sequence, how does the “polyreactivity (PSR sort gate)” value read?
Its value is “high polyreactivity”.
